Like-named read-outs stand apart in the source and are kept apart here. Bridge positions count the residues as written; N and C are the ends. Square brackets hold non-standard residues; d marks the D form. Ends that are not written are not given here. * marks the point of attachment. FITC = O=C1OC2(c3ccc(O)cc3Oc3cc(O)ccc32)c2ccc(NC(=S)*)cc21; Phe(4-NO2) = N[C@@H](Cc1ccc([N+](=O)[O-])cc1)C(=O)O; Gla = N[C@@H](CC(C(=O)O)C(=O)O)C(=O)O; Dap = NC[C@H](N)C(=O)O; AEEA = NCCOCCOCC(=O)O A value given as a limit tells only on which side of the number the result lay.

What all share (assay): FP
The target in test [1] is T1, PRMT5-MEP50 complex (full-length, purified) (human | , UniProt O14744 1-637; Q9BQA1 1-342).
T1 sequence (O14744 whole entry, chain 1 of 2): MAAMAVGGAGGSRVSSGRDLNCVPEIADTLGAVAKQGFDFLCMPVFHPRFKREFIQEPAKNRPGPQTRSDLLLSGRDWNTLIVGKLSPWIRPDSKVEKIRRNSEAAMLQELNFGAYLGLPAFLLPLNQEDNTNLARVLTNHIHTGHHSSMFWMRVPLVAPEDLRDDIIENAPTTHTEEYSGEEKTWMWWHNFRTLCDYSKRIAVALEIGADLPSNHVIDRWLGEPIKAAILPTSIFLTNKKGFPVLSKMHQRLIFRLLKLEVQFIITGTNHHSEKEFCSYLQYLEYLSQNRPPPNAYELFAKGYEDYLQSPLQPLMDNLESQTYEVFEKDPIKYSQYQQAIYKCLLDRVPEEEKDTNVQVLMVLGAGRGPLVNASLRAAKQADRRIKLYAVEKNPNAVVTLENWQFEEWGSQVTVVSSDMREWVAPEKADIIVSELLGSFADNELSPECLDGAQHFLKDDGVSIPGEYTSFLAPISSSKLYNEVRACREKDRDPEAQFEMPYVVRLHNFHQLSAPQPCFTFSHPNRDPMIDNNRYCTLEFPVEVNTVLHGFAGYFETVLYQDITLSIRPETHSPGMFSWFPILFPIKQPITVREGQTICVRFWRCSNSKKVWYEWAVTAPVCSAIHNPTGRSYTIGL
T1 sequence (Q9BQA1 whole entry, chain 2 of 2): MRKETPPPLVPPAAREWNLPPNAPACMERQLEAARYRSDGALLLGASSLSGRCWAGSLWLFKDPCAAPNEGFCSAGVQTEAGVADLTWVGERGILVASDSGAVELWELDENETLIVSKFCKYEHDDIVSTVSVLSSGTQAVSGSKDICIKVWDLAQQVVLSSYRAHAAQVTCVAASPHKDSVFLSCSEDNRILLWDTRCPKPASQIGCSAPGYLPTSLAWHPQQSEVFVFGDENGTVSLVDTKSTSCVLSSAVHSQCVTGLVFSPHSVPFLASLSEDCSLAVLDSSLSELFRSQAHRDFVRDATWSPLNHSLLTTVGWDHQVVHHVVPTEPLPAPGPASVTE
Test [2] concerns the target T1, PRMT5-MEP50 complex (full-length, …). The source holds these as a separate data set.
Test [3] shares this target. The source holds these as a separate data set.

In general, Ki refers to the equilibrium dissociation constant of an inhibitor or competing ligand from its target. Read a high Ki as a looser hold on the target. Regarding SRVVP[dA]QFDDADSSD [peptide 1 (RioK1 PBM with D-Ala)], the Ki in test [1] stood at 5.1 µM.

A word on the Kd: it is the equilibrium constant for the complex coming apart. A higher Kd goes with lower affinity. On to {FITC-AEEA}-SRVVP[Dap]QFDDADSSD-NH2 (lactam 6-9; not fully specified) [5], for which the Kd in test [2] was greater than 2000 nM.

Take VPGQFDDA[Gla] (also: FITC as in peptide 29) [linear peptide 40 (29 with Asp replaced by Gla)]: the dissociation constant Kd in test [3] stood at 245 nM.

For VPGQ[Phe(4-NO2)]DDAD (also: FITC as in peptide 29) [linear peptide 41 (29 with Phe replaced by Phe(4-NO2))], the Kd in test [3] turned out to be 232 nM.

B1: peptide 4 (native RioK1 PBM sequence, unlabeled reference) (peptide)
chain: SRVVPGQFDDADSSD
modifications: unlabeled; taken as the same span as the printed RioK1 tracer sequence (7BOC entity 2); end groups are in the figure/SI
For B1, affinity in test [1] was put at a Ki of 1.8 µM.

As to SRVVP[dA]QF[dA]DADSSD [peptide 3 (RioK1 PBM with D-Ala at 14 and 17)], in test [1], the Ki came out at 65 µM.

Turning to SRVVPGQF[dA]DADSSD [peptide 2 (RioK1 PBM with D-Ala)], in test [1], the inhibition constant Ki was 4.5 µM.

For the origin of these results see article PMC9706563 (2022).
